In the supplement of paper PMC10065799, “High-throughput profiling of sequence recognition by tyrosine kinases and SH2 domains using bacterial peptide display” (eLife, 2023):

Key:
Fes = Fes (UniProt P07332); experiment: phosphorylation enrichment, bacterial display (enrichment ratio); higher = better substrate or ligand; peptides without Tyr show the background
FGFR1 = FGFR1 (UniProt P11362); experiment: as above
Hck = Hck (UniProt P08631); experiment: as above
c-Src = experiment: as above
Fer (mouse) = experiment: as above
Jak2 = Jak2 (UniProt O60674); experiment: as above
c-Abl (mouse) = experiment: as above
EPHB1 = EPHB1 (UniProt P54762); experiment: as above
MERTK = MERTK (UniProt Q12866); experiment: as above
MERTK, sequence (Q12866 whole entry, looked up): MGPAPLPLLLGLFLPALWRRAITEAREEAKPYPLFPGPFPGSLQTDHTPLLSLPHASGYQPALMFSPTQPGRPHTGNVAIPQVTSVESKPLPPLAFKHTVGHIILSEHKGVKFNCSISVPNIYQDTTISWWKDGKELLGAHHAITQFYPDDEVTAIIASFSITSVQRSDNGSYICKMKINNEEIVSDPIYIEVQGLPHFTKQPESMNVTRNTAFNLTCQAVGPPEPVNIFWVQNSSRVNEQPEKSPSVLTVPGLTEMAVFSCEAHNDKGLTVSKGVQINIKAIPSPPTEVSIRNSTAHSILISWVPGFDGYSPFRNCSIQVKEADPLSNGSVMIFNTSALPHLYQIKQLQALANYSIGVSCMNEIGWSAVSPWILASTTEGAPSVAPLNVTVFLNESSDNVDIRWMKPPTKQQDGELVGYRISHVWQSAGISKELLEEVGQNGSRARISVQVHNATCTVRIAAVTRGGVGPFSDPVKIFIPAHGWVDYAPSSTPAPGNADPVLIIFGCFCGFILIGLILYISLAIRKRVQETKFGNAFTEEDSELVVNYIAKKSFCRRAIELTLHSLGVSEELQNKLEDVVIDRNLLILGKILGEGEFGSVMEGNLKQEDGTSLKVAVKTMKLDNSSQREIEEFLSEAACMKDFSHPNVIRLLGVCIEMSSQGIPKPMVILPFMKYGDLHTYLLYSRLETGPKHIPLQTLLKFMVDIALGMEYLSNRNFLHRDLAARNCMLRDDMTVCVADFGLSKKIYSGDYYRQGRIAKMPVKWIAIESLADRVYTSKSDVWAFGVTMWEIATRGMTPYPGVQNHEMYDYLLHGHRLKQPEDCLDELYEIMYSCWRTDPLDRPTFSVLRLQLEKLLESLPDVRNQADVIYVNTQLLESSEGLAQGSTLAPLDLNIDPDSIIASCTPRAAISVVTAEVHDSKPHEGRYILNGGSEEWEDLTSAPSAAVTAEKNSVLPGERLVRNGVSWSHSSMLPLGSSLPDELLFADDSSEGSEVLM

EPHB2 = EPHB2 (UniProt P29323); experiment: as above
EPHB2, sequence (P29323 whole entry, looked up): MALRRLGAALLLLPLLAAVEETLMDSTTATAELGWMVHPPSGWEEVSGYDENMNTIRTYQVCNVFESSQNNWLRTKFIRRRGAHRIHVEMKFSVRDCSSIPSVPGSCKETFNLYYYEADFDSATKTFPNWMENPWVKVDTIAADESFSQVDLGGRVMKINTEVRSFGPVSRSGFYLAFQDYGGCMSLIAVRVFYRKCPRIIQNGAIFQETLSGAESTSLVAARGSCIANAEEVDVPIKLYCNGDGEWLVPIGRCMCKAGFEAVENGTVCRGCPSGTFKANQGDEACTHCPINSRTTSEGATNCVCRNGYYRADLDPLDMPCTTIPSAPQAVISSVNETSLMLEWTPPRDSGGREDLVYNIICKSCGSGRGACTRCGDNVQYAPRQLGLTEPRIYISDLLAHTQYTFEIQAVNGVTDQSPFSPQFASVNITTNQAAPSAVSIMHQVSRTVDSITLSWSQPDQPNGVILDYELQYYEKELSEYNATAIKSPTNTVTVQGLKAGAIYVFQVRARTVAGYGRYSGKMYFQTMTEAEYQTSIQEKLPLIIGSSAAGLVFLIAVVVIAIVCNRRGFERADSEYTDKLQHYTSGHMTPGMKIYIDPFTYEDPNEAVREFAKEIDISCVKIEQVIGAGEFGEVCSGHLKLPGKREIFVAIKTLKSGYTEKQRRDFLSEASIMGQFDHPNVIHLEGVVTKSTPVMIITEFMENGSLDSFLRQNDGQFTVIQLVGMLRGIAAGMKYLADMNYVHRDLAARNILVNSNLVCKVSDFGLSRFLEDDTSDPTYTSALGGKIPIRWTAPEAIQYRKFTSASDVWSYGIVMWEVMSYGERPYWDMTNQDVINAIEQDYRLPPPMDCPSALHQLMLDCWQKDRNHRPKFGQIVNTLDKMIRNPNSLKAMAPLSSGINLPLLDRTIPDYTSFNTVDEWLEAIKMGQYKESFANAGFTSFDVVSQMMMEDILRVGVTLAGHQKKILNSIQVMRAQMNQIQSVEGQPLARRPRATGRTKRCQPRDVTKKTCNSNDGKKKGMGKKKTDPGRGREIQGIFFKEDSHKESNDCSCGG

FGFR3 = FGFR3 (UniProt P22607); experiment: as above
AncSZ = experiment: as above
Fyn = Fyn (UniProt P06241); experiment: as above
Fyn, sequence (P06241 whole entry, looked up): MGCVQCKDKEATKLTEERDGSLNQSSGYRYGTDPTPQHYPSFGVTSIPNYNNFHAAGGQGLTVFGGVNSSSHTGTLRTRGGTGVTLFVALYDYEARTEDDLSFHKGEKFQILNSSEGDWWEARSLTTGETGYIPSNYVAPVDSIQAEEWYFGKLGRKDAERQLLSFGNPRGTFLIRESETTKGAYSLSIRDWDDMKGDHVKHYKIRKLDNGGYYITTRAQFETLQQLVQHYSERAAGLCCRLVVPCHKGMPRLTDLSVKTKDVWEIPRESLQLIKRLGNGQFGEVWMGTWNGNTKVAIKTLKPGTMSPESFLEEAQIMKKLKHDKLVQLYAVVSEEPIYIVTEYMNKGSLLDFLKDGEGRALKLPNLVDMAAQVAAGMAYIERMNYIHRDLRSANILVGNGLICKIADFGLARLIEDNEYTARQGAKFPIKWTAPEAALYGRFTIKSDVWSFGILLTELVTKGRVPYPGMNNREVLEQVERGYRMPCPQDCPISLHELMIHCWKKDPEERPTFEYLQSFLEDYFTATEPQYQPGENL

c-Src SH2 = experiment: SH2 binding enrichment of the phosphorylated peptide, bacterial display (enrichment ratio); higher = better substrate or ligand; peptides without Tyr show the background
SHP2-C SH2 = experiment: as above
Grb2 SH2 = Grb2 SH2 (UniProt P62993); experiment: as above
Grb2 SH2, sequence (P62993 whole entry, looked up, the tested form may be a part): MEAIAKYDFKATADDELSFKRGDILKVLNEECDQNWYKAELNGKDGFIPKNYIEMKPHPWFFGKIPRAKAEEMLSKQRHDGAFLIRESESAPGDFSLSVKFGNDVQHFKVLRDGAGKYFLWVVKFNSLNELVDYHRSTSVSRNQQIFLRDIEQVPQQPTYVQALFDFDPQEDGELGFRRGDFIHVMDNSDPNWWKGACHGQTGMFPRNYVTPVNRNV
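For SH2 binding enrichment of the phosphorylated peptide, bacterial display in this document: peptide library displayed on the E. coli surface as eCPX fusions, selected cells deep-sequenced, score is each peptide's frequency after selection divided by its frequency in the input.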
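For phosphorylation enrichment, bacterial display in this document: 11-residue human phosphosite peptides and single-mutation variants displayed on the E. coli surface, counted by deep sequencing, each peptide's frequency after selection divided by its frequency in the unselected input library; frequency after pTyr selection over input frequency; kinase dosed for 20-30% of maximal phosphorylation in three min.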

Hck, sequence (P08631 whole entry, looked up): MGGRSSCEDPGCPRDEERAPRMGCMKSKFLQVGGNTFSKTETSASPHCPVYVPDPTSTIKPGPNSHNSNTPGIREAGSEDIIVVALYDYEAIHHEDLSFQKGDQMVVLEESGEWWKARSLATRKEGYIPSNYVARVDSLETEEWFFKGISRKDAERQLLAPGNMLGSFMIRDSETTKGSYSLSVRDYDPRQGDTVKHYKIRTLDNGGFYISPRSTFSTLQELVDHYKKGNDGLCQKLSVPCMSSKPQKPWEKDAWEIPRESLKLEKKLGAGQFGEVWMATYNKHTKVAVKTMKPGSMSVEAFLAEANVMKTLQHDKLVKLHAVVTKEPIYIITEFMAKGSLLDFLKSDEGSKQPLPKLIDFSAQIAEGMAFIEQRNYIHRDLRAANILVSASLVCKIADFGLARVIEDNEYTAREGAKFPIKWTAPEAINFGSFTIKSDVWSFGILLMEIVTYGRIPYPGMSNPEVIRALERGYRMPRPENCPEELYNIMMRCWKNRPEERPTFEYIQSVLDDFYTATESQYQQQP
FGFR1, sequence (P11362 whole entry, looked up): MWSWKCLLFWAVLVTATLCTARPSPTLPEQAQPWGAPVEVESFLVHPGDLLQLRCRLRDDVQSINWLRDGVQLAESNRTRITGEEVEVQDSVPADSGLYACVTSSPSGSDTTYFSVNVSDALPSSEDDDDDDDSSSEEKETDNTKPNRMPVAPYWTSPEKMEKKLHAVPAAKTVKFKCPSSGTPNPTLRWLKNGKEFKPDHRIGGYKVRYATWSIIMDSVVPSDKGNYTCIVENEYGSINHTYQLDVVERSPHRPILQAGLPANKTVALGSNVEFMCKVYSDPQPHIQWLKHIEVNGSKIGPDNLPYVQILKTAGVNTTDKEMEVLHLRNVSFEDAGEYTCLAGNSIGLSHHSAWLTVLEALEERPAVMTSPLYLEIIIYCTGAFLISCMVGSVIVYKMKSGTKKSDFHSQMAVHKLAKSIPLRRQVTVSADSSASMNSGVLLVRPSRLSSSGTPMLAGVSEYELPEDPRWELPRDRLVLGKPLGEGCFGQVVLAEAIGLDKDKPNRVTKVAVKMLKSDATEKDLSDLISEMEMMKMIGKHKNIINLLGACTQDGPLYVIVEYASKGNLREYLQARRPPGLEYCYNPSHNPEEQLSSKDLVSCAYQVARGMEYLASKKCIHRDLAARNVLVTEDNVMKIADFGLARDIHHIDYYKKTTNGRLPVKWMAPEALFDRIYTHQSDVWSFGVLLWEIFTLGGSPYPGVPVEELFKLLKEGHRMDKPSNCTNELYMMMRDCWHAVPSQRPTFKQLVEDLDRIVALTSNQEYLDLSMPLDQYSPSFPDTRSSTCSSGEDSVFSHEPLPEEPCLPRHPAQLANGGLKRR
Fes, sequence (P07332 whole entry, looked up): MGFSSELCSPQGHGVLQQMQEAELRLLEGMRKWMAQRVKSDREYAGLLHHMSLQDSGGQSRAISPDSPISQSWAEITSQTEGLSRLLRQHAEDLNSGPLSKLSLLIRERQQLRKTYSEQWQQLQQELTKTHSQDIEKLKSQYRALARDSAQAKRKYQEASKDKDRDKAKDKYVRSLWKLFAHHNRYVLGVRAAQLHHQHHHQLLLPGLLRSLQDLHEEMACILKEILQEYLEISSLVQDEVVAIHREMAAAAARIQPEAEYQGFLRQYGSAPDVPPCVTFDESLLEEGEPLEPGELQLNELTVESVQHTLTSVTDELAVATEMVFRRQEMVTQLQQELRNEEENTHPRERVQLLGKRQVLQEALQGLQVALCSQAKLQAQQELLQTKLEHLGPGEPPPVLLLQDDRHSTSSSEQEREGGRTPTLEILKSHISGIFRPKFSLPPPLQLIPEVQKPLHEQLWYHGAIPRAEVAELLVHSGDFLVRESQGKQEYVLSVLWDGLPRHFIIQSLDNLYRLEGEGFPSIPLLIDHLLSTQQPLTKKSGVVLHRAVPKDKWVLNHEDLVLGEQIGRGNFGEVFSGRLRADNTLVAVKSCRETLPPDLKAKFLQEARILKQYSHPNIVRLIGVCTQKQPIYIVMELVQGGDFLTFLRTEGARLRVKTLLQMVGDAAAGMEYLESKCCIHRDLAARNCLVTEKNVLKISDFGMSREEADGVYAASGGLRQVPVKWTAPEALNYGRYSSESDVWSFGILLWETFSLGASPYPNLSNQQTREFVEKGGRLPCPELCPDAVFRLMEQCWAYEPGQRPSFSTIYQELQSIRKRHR

Sequence | phosphorylation enrichment (Fes) | phosphorylation enrichment (FGFR1) | phosphorylation enrichment (Hck) | phosphorylation enrichment (c-Src) | phosphorylation enrichment (Fer (mouse)) | phosphorylation enrichment (Jak2) | phosphorylation enrichment (c-Abl (mouse)) | phosphorylation enrichment (EPHB1) | phosphorylation enrichment (MERTK) | phosphorylation enrichment (EPHB2) | phosphorylation enrichment (FGFR3) | phosphorylation enrichment (AncSZ) | phosphorylation enrichment (Fyn) | SH2 binding enrichment (c-Src SH2) | SH2 binding enrichment (SHP2-C SH2) | SH2 binding enrichment (Grb2 SH2)
FCRIMYDIFPF [INTS13_Y67_YF] | 1.74 | 0.531 | 3.11 | 3 | 1.18 | 1.57 | 1.38 | 2.66 | 4.83 | 2.61 | 0.743 | 1.71 | 1.31 | 0.8 | 0.862 | 0.93
FFRDGCMPRQF [GSS_Y270_Y270C_YF] | 1.2 | 0.416 | 0.497 | 0.463 | 0.489 | 0.949 | 0.717 | 0.533 | 0.386 | 0.518 | 0.606 | 0.863 | 0.464 | 0.506 | 0.496 | 0.849
FFWDGYMPRQF [GSS_Y270_R267W_YF] | 1.19 | 0.481 | 0.471 | 0.43 | 0.504 | 3.7 | 0.734 | 0.601 | 0.398 | 0.551 | 0.735 | 1.12 | 0.349 | 0.81 | 0.782 | 1.05
FGDTPYIPFRD [CDC14C_Y132] | 0.905 | 0.522 | 0.54 | 0.781 | 0.542 | 0.646 | 0.589 | 0.495 | 0.445 | 0.458 | 0.662 | 0.764 | 0.55 | 0.602 | 0.757 | 0.809
FGLPRYRWLTH [TSPAN12_Y143_YF] | 0.858 | 0.529 | 0.526 | 0.448 | 0.446 | 0.687 | 0.616 | 0.526 | 0.585 | 0.692 | 0.468 | 1.01 | 0.552 | 0.609 | 0.657 | 0.584
FGSGNYNVFGN [HNRNPA2B1_Y300_D302V_YF] | 0.508 | 0.483 | 0.423 | 0.412 | 0.338 | 0.449 | 0.328 | 0.481 | 0.406 | 0.476 | 0.434 | 0.575 | 0.396 | 0.682 | 0.805 | 0.766
FGTAQYCCRMG [LRRK2_Y2023_I2020T_YF] | 0.693 | 0.56 | 0.518 | 0.403 | 0.499 | 0.515 | 1.28 | 0.598 | 1.79 | 8.12 | 0.517 | 0.663 | 0.463 | 0.772 | 0.863 | 0.978
FGVTLYPNSRE [MEP1A_Y472] | 1.17 | 0.556 | 0.599 | 0.541 | 0.398 | 0.92 | 0.995 | 0.675 | 0.714 | 0.68 | 0.766 | 1.02 | 0.432 | 0.638 | 0.858 | 0.891
FIGCIYLFLTK [GARS1_Y414_R412C_YF] | 0.772 | 0.458 | 0.485 | 0.314 | 0.456 | 0.792 | 0.748 | 0.251 | 0.415 | 0.49 | 0.573 | 0.803 | 0.399 | 1.33 | 1.71 | 1.86
FLTQHYDAKPQ [ANG_Y38] | 0.741 | 1.14 | 0.67 | 0.609 | 0.658 | 0.869 | 0.613 | 0.637 | 0.557 | 0.581 | 0.58 | 0.732 | 0.583 | 0.481 | 0.64 | 0.902
FMLFQYLKQIE [RPAP3_Y569_D564Y_YF] | 1.36 | 0.468 | 0.505 | 0.498 | 0.506 | 1.27 | 1.07 | 0.539 | 0.482 | 0.716 | 0.783 | 1.12 | 0.447 | 1.08 | 1.48 | 1.53
FNVLQYVVPKV [EIF3A_Y382_E386K] | 0.797 | 1.1 | 0.386 | 0.383 | 0.348 | 2.2 | 9.24 | 1.09 | 1.41 | 0.607 | 1.02 | 0.832 | 0.465 | 0.964 | 2.18 | 1.31
FPHVIYARLWR [SMAD4_Y95] | 0.85 | 0.567 | 5.38 | 5.17 | 0.539 | 0.751 | 10.1 | 3.11 | 1.5 | 1.16 | 0.648 | 0.917 | 5.08 | 0.425 | 0.61 | 0.767
FPLELYERVRI [PRKCG_Y312_M317I_YF] | 1.29 | 0.498 | 1.18 | 0.528 | 3.28 | 1.39 | 0.739 | 1.66 | 0.453 | 1.1 | 0.652 | 1.34 | 0.48 | 0.567 | 0.775 | 0.854
FQKNVYSEELR [LMNA_Y211_I210V] | 0.727 | 0.418 | 0.486 | 0.68 | 0.417 | 0.672 | 0.535 | 0.456 | 0.518 | 0.48 | 0.449 | 0.674 | 0.613 | 0.566 | 0.591 | 1.24
FQLENCCNGGG [INS_Y108_Y108C_YF] | 0.944 | 0.442 | 0.504 | 0.467 | 0.564 | 0.85 | 0.546 | 0.509 | 0.516 | 0.586 | 0.523 | 0.896 | 0.445 | 0.537 | 0.444 | 0.772
FQQLFYLLQIN [IQGAP2_Y890_T894I_YF] | 1.76 | 0.648 | 0.617 | 0.639 | 0.658 | 1.47 | 1.06 | 0.82 | 0.611 | 0.815 | 1.01 | 1.51 | 0.541 | 0.889 | 1.1 | 1.14

Sequence | phosphorylation enrichment (Fes) | phosphorylation enrichment (FGFR1) | phosphorylation enrichment (Hck) | phosphorylation enrichment (c-Src) | phosphorylation enrichment (Fer (mouse)) | phosphorylation enrichment (Jak2) | phosphorylation enrichment (c-Abl (mouse)) | phosphorylation enrichment (EPHB1) | phosphorylation enrichment (MERTK) | phosphorylation enrichment (EPHB2) | phosphorylation enrichment (FGFR3) | phosphorylation enrichment (AncSZ) | phosphorylation enrichment (Fyn) | SH2 binding enrichment (c-Src SH2) | SH2 binding enrichment (SHP2-C SH2) | SH2 binding enrichment (Grb2 SH2)
FQRLQYIKQLG [SAMHD1_Y146_R145Q] | 0.854 | 0.451 | 0.418 | 0.476 | 0.453 | 0.934 | 0.665 | 0.92 | 0.404 | 0.705 | 0.517 | 0.715 | 0.374 | 0.422 | 0.666 | 0.867
FRAPGYREVVI [TNS2_Y673_YF] | 0.618 | 0.502 | 0.416 | 0.409 | 0.325 | 0.55 | 0.525 | 0.466 | 0.467 | 0.422 | 0.446 | 0.52 | 0.399 | 0.667 | 1.13 | 0.942
FRPPYYHRNCM [HGD_Y334] | 0.88 | 0.513 | 0.432 | 0.442 | 0.477 | 0.89 | 0.799 | 0.429 | 0.426 | 0.449 | 0.504 | 0.708 | 0.418 | 1.15 | 1.23 | 1.21
FRTGHYLCNAC [GATA1_Y223_D218Y_YF] | 0.634 | 0.566 | 0.443 | 0.401 | 0.363 | 0.53 | 0.393 | 0.479 | 0.399 | 0.484 | 0.625 | 0.62 | 0.44 | 0.743 | 1.07 | 1.14
FSALDYKIFYY [WDPCP_Y210_L205F] | 1.45 | 1.23 | 0.473 | 0.763 | 0.529 | 1.4 | 1.2 | 0.928 | 0.462 | 0.588 | 1.18 | 1.38 | 0.613 | 1.27 | 1.17 | 1.22
FSAPNCCYRCG [PPP2CA_Y265_Y265C] | 1.21 | 0.489 | 0.55 | 0.5 | 0.547 | 1.02 | 0.833 | 0.671 | 0.505 | 0.676 | 0.76 | 1 | 0.518 | 0.582 | 0.529 | 0.925
FSDPDYLAAVD [GLB1_Y154_S149F] | 0.939 | 0.479 | 0.702 | 0.381 | 0.475 | 0.928 | 0.577 | 0.58 | 0.42 | 0.556 | 0.691 | 1.45 | 0.504 | 0.417 | 0.551 | 0.746
FSGKAYADEER [CRIM1_Y826] | 1.03 | 0.694 | 0.499 | 0.496 | 0.486 | 0.837 | 0.786 | 0.565 | 0.395 | 0.571 | 0.566 | 0.895 | 0.463 | 0.515 | 0.748 | 1
FSLIHYAGIVV [MYH7_Y582_D587V] | 1.37 | 0.482 | 0.568 | 0.621 | 0.729 | 1.3 | 1.04 | 0.652 | 0.45 | 0.59 | 0.777 | 1.13 | 0.532 | 0.689 | 2.77 | 1.01
FTRNFYVRAVL [CYBA_Y88_YF] | 1.58 | 0.635 | 0.565 | 0.554 | 0.689 | 1.54 | 1.57 | 0.831 | 0.503 | 0.713 | 1.11 | 1.36 | 0.529 | 0.448 | 0.658 | 0.581
GASWRYGSGVS [NEU1_Y242] | 0.782 | 0.531 | 0.505 | 0.42 | 0.428 | 0.566 | 0.506 | 0.512 | 0.413 | 0.432 | 0.617 | 0.637 | 0.479 | 0.461 | 0.721 | 0.728
GCCSWYRGWAP [TIMP3_Y195_Y191C] | 0.967 | 1.38 | 0.784 | 3.1 | 3.84 | 0.705 | 0.59 | 0.563 | 0.459 | 0.565 | 0.966 | 0.944 | 0.651 | 1.24 | 1.14 | 1.56
GCKNHYDKDKP [THAP1_Y14_R13H] | 1.02 | 0.555 | 0.411 | 0.445 | 0.521 | 0.616 | 0.736 | 0.396 | 0.504 | 0.521 | 0.562 | 0.583 | 0.423 | 0.845 | 0.928 | 1.11
GCVSKYSGVFS [TUBGCP6_Y1624] | 0.964 | 0.321 | 0.411 | 0.463 | 0.403 | 0.81 | 0.619 | 0.433 | 0.514 | 0.458 | 0.51 | 0.815 | 0.357 | 0.596 | 0.906 | 0.83
GDEAIYATVAG [NRTKtide_2018] | 2.64 | 3.87 | 9.26 | 7.59 | 13.4 | 0.803 | 22.1 | 12.1 | 9.16 | 15.5 | 3 | 1.59 | 10.7 | 0.612 | 0.812 | 1.01
GDEEDYFEIPG [EGFR_opt_F_2015] | 1.22 | 4.57 | 0.532 | 0.628 | 0.5 | 1.21 | 0.78 | 0.571 | 0.532 | 0.723 | 5.08 | 2.75 | 0.504 | 0.706 | 0.632 | 0.875
